# ± gives the standard deviation of the averaged measurements.
# B1: library; a variant is named by its letters at N, in order (parent)
# chain: GCUGUCACCGAGAAACUGUGAAGUAUAUCUUAAACCUGGGCACUUAAAAGAUAUAUGGAGUUAGUAGUGCAACCUGCUCGGUCUGAUGAGUCCNNNNNNGGACGAAACAGC
# What was measured:
# cyclic di-GMP [1] = variants of: B1; assay: normalized RNA/DNA level without ligand (relative to sTRSVctl = 100) (log10 (% of sTRSVctl)); HEK293T; ligand: cyclic di-GMP (c-di-GMP-II aptamer); higher = less ribozyme self-cleavage, higher mRNA level; conditions: reporter: mCherry (pCS4076), ligand present: no
# Summary of the method: (§1)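 For each 6-well well, 4 µg of library plasmid encoding mCherry-linked ribozyme switches, or eGFP-linked ones in some ligand experiments, was transfected into HEK293T. Any ligand was added 1 h before transfection, and RNA was extracted with EDTA 72 h after it, then reverse-transcribed, amplified, barcoded and sequenced. RNA level was obtained by dividing RNA reads by DNA reads, normalizing to a spiked-in non-cleaving sequence or to the top sequences, then scaling and log-transforming. The top set was 25 sequences, scaling was ×100 with log10, and ≥100 DNA reads were required.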
# cyclic di-GMP [2] = variants of: B1; assay: normalized RNA/DNA level with ligand (relative to sTRSVctl = 100) (log10 (% of sTRSVctl)); HEK293T; ligand: cyclic di-GMP (c-di-GMP-II aptamer); ligand concentration (+) RNA-Seq: 1 mM; higher = less ribozyme self-cleavage, higher mRNA level; conditions: reporter: mCherry (pCS4076), ligand present: yes
# Summary of the method: as §1
Variant,normalized RNA/DNA level without ligand (log10) (cyclic di-GMP [1]),normalized RNA/DNA level with ligand (log10) (cyclic di-GMP [2])
CCUCCA,1.68 ± 0.031,1.83 ± 0.088
GCUGAC,1.47 ± 0.069,1.67 ± 0.1
GCUGAG,1.5 ± 0.079,1.67 ± 0.069
GCUGAU,1.55 ± 0.061,1.72 ± 0.087
CCUUCG,1.74 ± 0.0028,1.87 ± 0.14
CCUUCC,1.779 ± 0.0029,1.87 ± 0.12
CCUGCA,1.67 ± 0.056,1.84 ± 0.058
CCUGCU,1.698 ± 0.0032,1.84 ± 0.1
CCUGCG,1.8 ± 0.026,1.88 ± 0.13
GCUCAA,1.6 ± 0.023,1.79 ± 0.072
GCUCAC,1.69 ± 0.034,1.83 ± 0.12
GCUCAG,1.79 ± 0.081,1.87 ± 0.15
ACUCCA,1.7 ± 0.02,1.84 ± 0.11
ACUCCU,1.72 ± 0.051,1.9 ± 0.1
ACUCCG,1.746 ± 0.0086,1.83 ± 0.15
CGAAAG,1.78 ± 0.056,1.88 ± 0.046
CGAAAU,1.42 ± 0.055,1.63 ± 0.12
ACUUCA,1.648 ± 0.014,1.83 ± 0.082
ACUUCC,1.776 ± 0.013,1.89 ± 0.08
ACUUCU,1.707 ± 0.0019,1.84 ± 0.057
ACUUCG,1.66 ± 0.067,1.79 ± 0.069
UCUCCA,1.758 ± 0.012,1.85 ± 0.12
UCUCCU,1.77 ± 0.003,1.91 ± 0.14

Variant,normalized RNA/DNA level without ligand (log10) (cyclic di-GMP [1]),normalized RNA/DNA level with ligand (log10) (cyclic di-GMP [2])
UCUCCG,1.839 ± 0.0029,1.94 ± 0.099
UCUCCC,1.81 ± 0.073,1.92 ± 0.14
GCUGUC,1.43 ± 0.14,1.72 ± 0.024
ACUGCG,1.73 ± 0.069,1.83 ± 0.069
ACUGCA,1.64 ± 0.023,1.77 ± 0.1
ACUGCC,1.744 ± 0.016,1.88 ± 0.12
CCUCUG,1.63 ± 0.058,1.81 ± 0.1
CCUCUU,1.63 ± 0.017,1.81 ± 0.15
CCUCUC,1.79 ± 0.053,1.89 ± 0.14
CCUCUA,1.427 ± 0.0066,1.68 ± 0.13
GCUGGG,1.56 ± 0.029,1.71 ± 0.15
GCUGGC,1.57 ± 0.052,1.71 ± 0.14
GGAAAA,1.3 ± 0.025,1.49 ± 0.12
GGAAAC,1.74 ± 0.088,1.83 ± 0.19
GGAAGC,1.634 ± 0.0082,1.76 ± 0.054
UCUACA,1.71 ± 0.025,1.86 ± 0.16
UCUACG,1.74 ± 0.011,1.89 ± 0.092
UCUACC,1.798 ± 0.0078,1.88 ± 0.12
UCUACU,1.696 ± 0.012,1.82 ± 0.097
GCUAAC,1.49 ± 0.023,1.7 ± 0.15
GCUAAG,1.49 ± 0.032,1.71 ± 0.1
GCUAAA,1.46 ± 0.085,1.67 ± 0.11
GCUAUU,1.568 ± 0.0067,1.74 ± 0.12

Variant,normalized RNA/DNA level without ligand (log10) (cyclic di-GMP [1]),normalized RNA/DNA level with ligand (log10) (cyclic di-GMP [2])
GCUAUC,1.53 ± 0.045,1.66 ± 0.13
UGAAGC,1.679 ± 0.0046,1.83 ± 0.14
UGAAGA,1.62 ± 0.024,1.77 ± 0.13
UGAAGG,1.661 ± 0.00062,1.84 ± 0.08
AGACAC,1.68 ± 0.042,1.82 ± 0.1
ACUUUG,1.59 ± 0.037,1.76 ± 0.12
ACUUUC,1.73 ± 0.042,1.85 ± 0.13
CCUCAC,1.698 ± 0.0058,1.85 ± 0.1
CCUCAU,1.65 ± 0.064,1.81 ± 0.057
ACUGUC,1.63 ± 0.036,1.8 ± 0.15
ACUGUU,1.452 ± 0.011,1.67 ± 0.13
ACUGUG,1.6 ± 0.038,1.76 ± 0.11
CCUGAC,1.649 ± 0.011,1.78 ± 0.11
CCUGAU,1.6 ± 0.021,1.78 ± 0.14
CCUGAG,1.55 ± 0.077,1.76 ± 0.15
CCUGAA,1.32 ± 0.099,1.61 ± 0.077
GGAAUC,1.55 ± 0.016,1.76 ± 0.09
GCUCCA,1.7142 ± 0.0002,1.83 ± 0.1
GCUCCU,1.71 ± 0.0058,1.85 ± 0.081
GCUCCG,1.79 ± 0.028,1.92 ± 0.13
GCUCCC,1.71 ± 0.052,1.83 ± 0.17
UCUCGC,1.808 ± 0.017,1.88 ± 0.098
UCUCGG,1.9 ± 0.063,1.96 ± 0.13

Variant,normalized RNA/DNA level without ligand (log10) (cyclic di-GMP [1]),normalized RNA/DNA level with ligand (log10) (cyclic di-GMP [2])
UCUCGU,1.69 ± 0.037,1.85 ± 0.075
UCUCGA,1.8 ± 0.036,1.86 ± 0.15
CCUAAC,1.66 ± 0.033,1.8 ± 0.097
CCUAAU,1.53 ± 0.042,1.73 ± 0.14
CCUAAG,1.56 ± 0.049,1.74 ± 0.095
CCUUGG,1.76 ± 0.081,1.9 ± 0.15
CCUUGC,1.72 ± 0.059,1.83 ± 0.085
CCUUGU,1.75 ± 0.058,1.86 ± 0.1
CCUUGA,1.63 ± 0.029,1.83 ± 0.095
UGAACC,1.78 ± 0.022,1.86 ± 0.12
UGAACU,1.72 ± 0.052,1.86 ± 0.11
UGAACA,1.75 ± 0.037,1.87 ± 0.074
ACUGAC,1.611 ± 0.012,1.77 ± 0.12
ACUGAG,1.54 ± 0.11,1.71 ± 0.031
UCUGUU,1.636 ± 0.0046,1.82 ± 0.12
UCUGUC,1.75 ± 0.035,1.87 ± 0.1
UCUGUG,1.73 ± 0.051,1.91 ± 0.092
UCUGAC,1.677 ± 0.011,1.84 ± 0.12
UCUGAG,1.66 ± 0.056,1.78 ± 0.098
ACUUAU,1.55 ± 0.042,1.73 ± 0.074
ACUUAA,1.49 ± 0.085,1.68 ± 0.13
ACUUAC,1.7124 ± 0.0011,1.84 ± 0.096
UCUUUU,1.744 ± 0.012,1.84 ± 0.073

Variant,normalized RNA/DNA level without ligand (log10) (cyclic di-GMP [1]),normalized RNA/DNA level with ligand (log10) (cyclic di-GMP [2])
UCUUUG,1.731 ± 0.0025,1.89 ± 0.069
UCUUUC,1.755 ± 0.014,1.86 ± 0.089
UCUUUA,1.65 ± 0.031,1.84 ± 0.11
UCUGGG,1.74 ± 0.026,1.88 ± 0.059
UCUGGC,1.78 ± 0.025,1.88 ± 0.068
UCUGGA,1.58 ± 0.054,1.79 ± 0.1
UCUUAU,1.683 ± 0.012,1.85 ± 0.14
UCUUAC,1.704 ± 0.017,1.86 ± 0.054
UCUUAA,1.64 ± 0.07,1.81 ± 0.044
CCUUUG,1.59 ± 0.078,1.77 ± 0.053
CCUUUU,1.59 ± 0.065,1.77 ± 0.073
CCUUUC,1.7 ± 0.021,1.85 ± 0.098
UCUUCA,1.75 ± 0.057,1.8 ± 0.1
UCUUCG,1.79 ± 0.055,1.89 ± 0.12
UCUUCC,1.79 ± 0.059,1.92 ± 0.13
UCUUCU,1.76 ± 0.066,1.84 ± 0.11
UCUAUU,1.63 ± 0.034,1.78 ± 0.094
UCUAUA,1.56 ± 0.067,1.74 ± 0.12
UCUAUC,1.698 ± 0.013,1.84 ± 0.086
UCUAUG,1.7 ± 0.034,1.85 ± 0.09
GCUUUU,1.67 ± 0.03,1.8 ± 0.11
GCUUUG,1.66 ± 0.03,1.83 ± 0.13
GCUUUC,1.58 ± 0.022,1.75 ± 0.11
